The text below walks through data of US20230176070A1 (published 2023).

In general, Kd refers to a measure of binding affinity in units of concentration. High values mean a looser complex, low ones a tighter complex. As usually defined, the koff is a measure of how fast the partners let go of each other. Higher therefore signals a short-lived complex. As a reminder, the kon is a measure of how fast the partners come together.

Test [1] concerns the target T1, human serum albumin (human, UniProt P02768 25-609).
T1 construct: In the mutant screen wild type HSA came from medium of transfected HeLa cells; also called HSA; wild type HSA
In words: SPR, HSA immobilised. (In SPR one partner is held on a chip, and binding of the other changes the refractive index at the surface.)
Description: (§1) Nb affinity measurement by SPR. Surface plasmon resonance (SPR, Biacore 3000 system, GE Healthcare) was used to measure Nb affinities. Antigen proteins immobilized on the activated CM5 sensor-chip by the following steps. Protein analytes were diluted to 10-30 μg/ml in 10 mM sodium acetate, pH 4.5, and were injected into the SPR system at 5 μl/min for 420 s. The surface of the sensor was then blocked by 1 M ethanolamine-HCl (pH 8.5). For each Nb analyte, a series of dilution (spanning three orders of magnitude) was injected in HBS-EP+ running buffer (GE-Healthcare) containing 2 mM DTT, at a flow rate of 20-30 μl/min for 120-180 s, followed by a dissociation time of 5-20 mins based on dissociation rate. Between each injection, the sensor chip surface was regenerated with the low pH buffer containing 10 mM glycine-HCl (pH 1.5-2.5), or high pH buffer of 20-40 mM NaOH (pH 12-13). The regeneration was performed with a flow rate of 40-50 μl/min for 30 s. The measurements were duplicated and only highly reproducible data was used for analysis. Binding sensorgrams for each Nb were processed and analyzed using BIAevaluation by fitting with 1:1 Langmuir model or 1:1 Langmuir model with mass transfer.

Test [2] concerns the target T1, human serum albumin. Description: indirect ELISA, HSA coated.
Description: (§2) Indirect ELISA was carried out to evaluate the camelid immune response of an antigen and to quantify the relative affinities of antigen-specific Nbs. An antigen was coated onto a 96-well ELISA plate (R&D system) at an amount of approximately 1-10 ng per well in a coating buffer (15 mM sodium carbonate, 35 mM sodium bicarbonate, pH 9.6) overnight at 4° C. The well surface was then blocked with a blocking buffer (DPBS, 0.05% Tween 20, 5% milk) at room temperature for 2 hours. To test an immune response, the immunized serum was serially 5-fold diluted in the blocking buffer. The diluted sera were incubated with the antigen coated wells at room temperature for 2 hours. HRP-conjugated secondary antibodies against llama Fc (Bethyl) were diluted 1:10,000 in the blocking buffer and incubated with each well for 1 hour at room temperature. […] Nbs of both specific binders for test and scramble negative controls were serially 10-fold diluted from 10 μM to 1 μM in the blocking buffer. HRP-conjugated secondary antibodies against His-tag (Genscript) or T7-tag (Thermo) were diluted 1:5,000 or 1:10,000 in the blocking buffer and incubated for 1 hour at room temperature. Three washes with 1x PBST (DPBS, 0.05% Tween 20) were carried out to remove nonspecific absorbance between incubations. After the final wash, the samples were further incubated under dark with freshly prepared w3,3′,5,5′-Tetramethylbenzidine (TMB) substrate for 10 mins at room temperature to develop the signals. After the STOP solution (R&D system), the plates were read at multiple wavelengths (450 nm and 550 nm) on a plate reader (Multiskan GO, Thermo Fisher). A false positive Nb binder was defined if any of the following two criteria was met: i) the ELISA signal can only be detected at a concentration of 10 μM and was under detected at 1 μM concentration. ii) At 1 μM concentration, a pronounced signal decrease (by more than 10-fold) was detected compared to the signal at 10 μM, while there were no signals can be detected at lower concentrations. The raw data was processed by Prism 7 (GraphPad) to fit into a 4PL curve and to calculate logIC50.
The target in test [3] is T2, MBP-PDZ fusion protein (mammalian (so in the source), UniProt P57105 6-100, limits assumed).
T2 construct: domain: PDZ domain; also called MBP fusion PDZ
T2 sequence (looked up): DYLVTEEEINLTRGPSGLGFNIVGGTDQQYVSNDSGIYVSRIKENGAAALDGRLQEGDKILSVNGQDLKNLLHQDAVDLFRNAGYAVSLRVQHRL
Description: beads-binding assay, MBP-PDZ-coupled resin.
Description: After Nb induction and cell lysis, the cell lysates were run on SDS-PAGE to estimate Nb expression levels. Recombinant Nbs in the cell lysis were diluted in 1x DPBS (pH 7.4) to a final concentration of ˜5 μM (for GST Nbs) and ˜50 nM (for PDZ Nbs). To test the specific interactions of Nbs with antigens, different antigens were coupled to the CNBr resin. Inactivated or MBP-conjugated CNBr resin was used for control. Antigen coupled resins or control resins were incubated with Nb lysates at 4° C. for 30 mins. The resins were then washed three times with a washing buffer (1x DPBS with 150 mM NaCl and 0.05% Tween 20) to remove nonspecific bindings. Specific antigen bound Nbs were then eluted from the resins by the hot LDS buffer containing 20 mM DTT and ran on SDS-PAGE. The intensities of Nbs on the gel were compared between antigen specific signals and control signals to derive the false positive binding.

Test [4] addresses T3, glutathione S-transferase (UniProt P08515 1-218 = GST).
T3 construct: Expressed in E. coli, purified on GSH resin; also called GST
Description: SPR, GST immobilised.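 Note: nanobody analytes injected as dilution series over three orders of magnitude across antigen on a CM5 chip, kinetics fitted by 1:1 Langmuir model, optionally with mass transfer, duplicate runs.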
Description: as §1

For test [5], the target named is T3, glutathione S-transferase. In words: indirect ELISA, GST coated. (In an ELISA, binding on a coated surface is turned into a signal by an enzyme label.)
Description: as §2
Test [6] has as its target T3, glutathione S-transferase. Description: SPR, GST immobilised (legend of FIG. 3H; differs from Table 1).
Description: as §1
Test [7] addresses T4, PDZ domain of mitochondrial outer membrane protein 25 (mammalian (so in the source), UniProt P57105 6-100, limits assumed).
T4 construct: domain: PDZ domain; Wild type PDZ as coated in ELISA and immobilised in SPR; also called wild type PDZ; OMP25 PDZ domain
T4 sequence (looked up): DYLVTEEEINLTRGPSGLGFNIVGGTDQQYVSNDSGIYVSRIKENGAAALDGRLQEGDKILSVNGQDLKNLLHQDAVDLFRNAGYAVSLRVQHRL
In words: indirect ELISA, wild type PDZ coated.
Description: Indirect ELISA was carried out to evaluate the camelid immune response of an antigen and to quantify the relative affinities of antigen-specific Nbs. An antigen was coated onto a 96-well ELISA plate (R&D system) at an amount of approximately 1-10 ng per well in a coating buffer (15 mM sodium carbonate, 35 mM sodium bicarbonate, pH 9.6) overnight at 4° C. The well surface was then blocked with a blocking buffer (DPBS, 0.05% Tween 20, 5% milk) at room temperature for 2 hours. To test an immune response, the immunized serum was serially 5-fold diluted in the blocking buffer. The diluted sera were incubated with the antigen coated wells at room temperature for 2 hours. […] Three washes with 1x PBST (DPBS, 0.05% Tween 20) were carried out to remove nonspecific absorbance between incubations. […] After the STOP solution (R&D system), the plates were read at multiple wavelengths (450 nm and 550 nm) on a plate reader (Multiskan GO, Thermo Fisher). A false positive Nb binder was defined if any of the following two criteria was met: i) the ELISA signal can only be detected at a concentration of 10 μM and was under detected at 1 μM concentration. ii) At 1 μM concentration, a pronounced signal decrease (by more than 10-fold) was detected compared to the signal at 10 μM, while there were no signals can be detected at lower concentrations. […]

For test [8], the target named is T4, PDZ domain of mitochondrial outer …. Description: SPR, PDZ immobilised.
Test [9] addresses T1, human serum albumin. In words: SPR, HSA immobilised (legend of FIG. 3I; differs from Table 2).
Description: as §1

T3 sequence (P08515 whole entry): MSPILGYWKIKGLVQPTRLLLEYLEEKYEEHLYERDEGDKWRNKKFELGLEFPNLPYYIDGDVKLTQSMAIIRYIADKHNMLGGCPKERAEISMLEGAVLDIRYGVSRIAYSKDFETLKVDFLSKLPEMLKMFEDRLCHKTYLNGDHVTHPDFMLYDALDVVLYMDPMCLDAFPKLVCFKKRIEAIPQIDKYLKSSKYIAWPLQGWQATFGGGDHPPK
T1 sequence (P02768 25-609 limits assumed): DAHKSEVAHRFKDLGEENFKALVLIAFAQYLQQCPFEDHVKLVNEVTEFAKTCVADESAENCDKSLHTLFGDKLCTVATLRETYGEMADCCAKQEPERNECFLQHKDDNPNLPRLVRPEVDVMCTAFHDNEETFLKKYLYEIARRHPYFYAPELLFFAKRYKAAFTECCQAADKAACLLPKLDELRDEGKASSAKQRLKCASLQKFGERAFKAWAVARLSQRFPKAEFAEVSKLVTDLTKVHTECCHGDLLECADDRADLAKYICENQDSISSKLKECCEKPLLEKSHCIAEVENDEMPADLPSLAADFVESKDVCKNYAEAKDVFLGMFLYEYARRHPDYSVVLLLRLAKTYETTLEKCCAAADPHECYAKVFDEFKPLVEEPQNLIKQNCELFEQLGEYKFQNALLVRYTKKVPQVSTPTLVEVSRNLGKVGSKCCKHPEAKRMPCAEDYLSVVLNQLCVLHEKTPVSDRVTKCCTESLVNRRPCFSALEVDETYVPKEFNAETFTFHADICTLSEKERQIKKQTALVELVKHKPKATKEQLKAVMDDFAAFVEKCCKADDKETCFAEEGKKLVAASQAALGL

B1: H25 (VHH)
VHH: DVQLVESGGGLVQAGGSLRLSCAASGRTISDYGMAWFRQAPGKEREFVGVITSNSVTTYYADSVKGRFTISRDNTKNTVYLQMISLKPEDTAIYYCAARIPVGFYYNARNYDFWGQGTQVTVSS
Take B1: in test [1], the affinity, expressed as Kd, was 0.858 nM; the dissociation rate constant (koff) worked out at 0.000802 s⁻¹; the on-rate (kon) turned out to be 936000 M⁻¹ s⁻¹. Moreover, the “ELISA affinity (LogIC50 (oD450nm))” value in test [2] came out at 5.34.

B2: P1 (VHH)
VHH: DVQLVESGGGLVQPGGSLRLSCAASGFTLDDYAIGWFRQAPGKEREGVSCISSHGSTYYADSVKGRFTISRDNVKNTLYLQMNSLKPEDTALYYCAASYYSDYEVAVCRSDALDAWGQGTQVTVSE
Regarding B2, the binding result in test [3] is given as “binds”.

B3: H21 (VHH)
VHH: QVQLVESGGGLVQAGGSLRLSCAASGYTSGNDAMGWFRQAPGKEREFVGAIRWSGVSTYYADSVKGRFTISRDGAKNTLYLQMNSLKPEDTAVYYCAAKFTGSAWYGVQKLESTYWDYWGQGTQVTVSS
For B3, in test [1], binding was put at a Kd of 0.266 nM, the dissociation rate constant (koff) was 0.000182 s⁻¹ and the on-rate (kon) amounted to 683000 M⁻¹ s⁻¹. For the same molecule, the “ELISA affinity (LogIC50 (oD450nm))” value in [2] worked out at 5.63.

B4: H16 (VHH)
VHH: QVQLVESGGGLVQTGGSLTLSCAASGRTFSTKSMGWFRQAPGKEREFVADINWNGGITHYADSVEGRFTISRDNANDMVYLQMNSLKPEDTAVYYCAGGRYSTLFSKSEADYDYWGQGTQVTVSS
B4: in test [1], the affinity, expressed as Kd, was 0.0862 nM; the dissociation rate constant (koff) came out at 0.000116 s⁻¹; the kon came to 1.34e+06 M⁻¹ s⁻¹. Also, the “ELISA affinity (LogIC50 (oD450nm))” value in [2] was 5.99.

B5: G60 (VHH)
VHH: QMGRNSAEVQLVESGGSLRLSCAASGSGFSSSIIAWYRQAPGKQRELVAAIGGPGSTNYADFVEGRFTISRDNAKNTGYLQMNNLNPEDTAVYYCNEVTRSGREYWGQGTQVTVSS
notes: also called G60(C1)
In test [4], B5 came in with a dissociation constant Kd of 1200 nM, a koff of 0.00586 s⁻¹ and a kon of 4870 M⁻¹ s⁻¹. For the same molecule, in [5], the “ELISA affinity (LogIC50 (oD450nm))” value is 2.49. Also, the Kd in test [6] turned out to be 1300 nM.

B6: NbPDZ P10 (VHH)
VHH: DVQLVESGGGLVQAGGSLRLSCTASGRTFSTYTMAWFRQAPGKEREFVAAITWSGTYYADSVKGRFTISRDNAKNTMYLQMNSLKPEDTAVYICAAVIGSTVDSYSPSDPLEYDYWGQGTQVTVSE
Regarding B6, the “WT ELISA affinity (LogIC50 (oD450nm))” value in test [7] turned out to be 5.21. In test [8], this molecule registered an equilibrium dissociation constant (Kd) of 0.0044 nM, a koff of 9.03e-06 s⁻¹ and a kon of 2.06e+06 M⁻¹ s⁻¹.

B7: H14 (VHH)
VHH: HVQLVESGGGLVQAGGSLRLSCTASGRTFTPYTMGWFRQAPGKEREFVASILWSGNNRDYADSVKDRFAISRDNAKNTAYLQMNSLKPEDTAVYYCAAGDGLGFYRSVNQYDYWGQGTQVTVSS
Regarding B7, the koff in test [9] amounted to 5.75e-06 s⁻¹. In [1], this molecule yielded a Kd of 0.0223 nM, an off-rate (koff) of 5.57e-06 s⁻¹ and an on-rate constant (kon) of 250000 M⁻¹ s⁻¹. For the same molecule, the “ELISA affinity (LogIC50 (oD450nm))” value in [2] was 5.96.

B8: P5 (VHH)
VHH: DVQLVESGGGLVQAGDSLRLSCAASGITFRWYTMAWFRQAPGKERDFVATINWSGSDTNYADSVKGRFTISRDNAKNTVTLQMNSLQPEDTAVYYCAGVPGTSLSGETDPRDYDYWGQGTQVTVSE
Consider B8, for which, in test [3], the binding result is “binds”.

B9: H18 (VHH)
VHH: EVQLVESGGGLVQAGGSLRLSCTASGPKDTPYTMGWFRQVPGKEREFVASVLWSGINTDYADSVKGRFAISRNNAKNTMYLQMNSLKPEDTAVYYCAAGYGLGFYRSISQYDYWGHGTQVTVSS
In test [1], B9 yielded an equilibrium dissociation constant (Kd) of 0.502 nM, an off-rate (koff) of 8.71e-05 s⁻¹ and an on-rate (kon) of 171000 M⁻¹ s⁻¹. Also, the “ELISA affinity (LogIC50 (oD450nm))” value in [2] stood at 5.65.

B10: H20 (VHH)
VHH: EVQLVESGGGLVQAGGSLRLSCTASGPKDTPYTMGWFRQVPGKEREFVASVLWSGINTDYADSVKGRFAISRNNAKNTMYLQMNSLKPEDTAVYYCAAGYGLGFYRTVSQYDYWGHGTQVTVSS
Consider B10, for which, in test [1], the Kd worked out at 0.247 nM, the off-rate (koff) amounted to 3.8e-05 s⁻¹ and the kon was found to be 154000 M⁻¹ s⁻¹. Besides, the “ELISA affinity (LogIC50 (oD450nm))” value in test [2] turned out to be 5.76.

B11: H28 (VHH)
VHH: DVQLVESGGGLAQAGGSLRLSCAASGRTFSNECMGWFRQAPGKEREFVATIRSTGHISYATSVQGRFTVSRDIAKNTVYLEMNNLKPEDTAVYSCGAGVSDYGCYRTSGYNYWGQGTQVTVSS
notes: also called N28
In [1], B11 showed a dissociation constant Kd of 1.66 nM, a koff of 0.00868 s⁻¹ and an on-rate (kon) of 5.24e+06 M⁻¹ s⁻¹. Further, the “ELISA affinity (LogIC50 (oD450nm))” value in test [2] was determined as 5.12.

B12: P15 (VHH)
VHH: QVQLVESGGGLVQAGGSLRLSCVASGRPFSSLDMGWFRQRPGKERDVVATINWTGDSTYYLDSVKGRFTISRDNAKNTVFLQMNSLKPEDTAVYYCAARGGGSSVDSEYDVGEFEYDYWGQGTQVTVSS
Regarding B12, the binding result in test [3] is “binds”.

B13: P2 (VHH)
VHH: DVQLVESGGGLVQAGGSLRLSCAASGHTFSSYTMGWFHQAPGKEREFVAEISGTGGNTGYADSVKGRFTISRDNAKNTVYLQMNSLKPEDTAVYYCAAVIGSPTDSSDYRSSLDYDYWGQGTQVTVSE
Take B13: the binding result in test [3] was “binds”.

B14: P6 (VHH)
VHH: HVQLVESGGGLVQAGGSLRLSCAASGRTFSRYTMGWFHQAPGKEREFVAEISGTGGNTGYADSVKGRFTMSRDNAKNTVYLQMNSLKPEDTGVYYCAAVIGSPTDSSDYRSSLDYDYWGQGTQVTVSE
With B14, the binding result in test [3] is on record as “binds”.

B15: P3 (VHH)
VHH: DVQLVESGGGLVQAGGSLRLSCAASGRTFSSYTMGWFHQAPGKEREFVAEIGGTGGNTGYADSVKGRFTISRDNAKNTVYLQMNSLKPEDTAVYYCAAVIGSPTDSSDYRSSLDYDYWGQGTQVTVSE
On to B15, for which, in test [3], the binding result is listed as “binds”.

B16: P4 (VHH)
VHH: HVQLVESGGGLVQAGGSLRLSCAAAGRTSSDYAMGWFRQAPGKEREFVSAINWSGISTYYADSVKGRFTISRDNAKNTVHLQMNSLKPEDTAVYYCAAEKLESLRNWHDPLMYDYWGQGTQVTVSE
Consider B16, for which the binding result in [3] is given as “binds”.

B17: H30 (VHH)
VHH: HVQLVESGGGLAQAGGSLRLSCAASGGTFSNSCMGWFRQAPGMEREFVAIIRSTGHTTYADSVEGRFTVSRDIAKNTVYLEMNSLKPEDTAVYSCVAGVSDYGCYRTSGIKYWGQGTQVTVSS
As for B17, in test [1], the dissociation constant Kd is 0.164 nM, the koff came out at 0.000168 s⁻¹ and the kon was 1.03e+06 M⁻¹ s⁻¹. Further, in [2], the “ELISA affinity (LogIC50 (oD450nm))” value was determined as 5.89.
